The values below are quoted from earlier work in publication PMC6222470.

Usually Kd stands for the concentration at which binding is half-saturated.

Series [1] concerns the target histone H4 H4K20me2 peptide (Homo sapiens) (UniProt P62805).
Series [2] concerns the target histone H3 H3K14ac peptide (Homo sapiens) (UniProt P68431).
Series [3] has as its target histone H3.3K36me3 H3.3 peptide (Homo sapiens) (UniProt P84243).
In series [4] the target is histone H3K14ac peptide H3 tail peptide (Homo sapiens) (UniProt P68431).
Series [5] addresses histone H3 H3K36me3 peptide (Homo sapiens) (UniProt P68431).

BRM BD BD, sequence (P51531 1378-1506): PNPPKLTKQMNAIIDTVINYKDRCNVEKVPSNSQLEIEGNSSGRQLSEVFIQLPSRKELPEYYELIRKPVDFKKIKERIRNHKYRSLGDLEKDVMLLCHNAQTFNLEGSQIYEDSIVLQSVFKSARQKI
BRM BD, sequence (P51531 1378-1506): as above
ZMYND11 PHD-BD-ZnF-PWWP, sequence (Q15326 100-371): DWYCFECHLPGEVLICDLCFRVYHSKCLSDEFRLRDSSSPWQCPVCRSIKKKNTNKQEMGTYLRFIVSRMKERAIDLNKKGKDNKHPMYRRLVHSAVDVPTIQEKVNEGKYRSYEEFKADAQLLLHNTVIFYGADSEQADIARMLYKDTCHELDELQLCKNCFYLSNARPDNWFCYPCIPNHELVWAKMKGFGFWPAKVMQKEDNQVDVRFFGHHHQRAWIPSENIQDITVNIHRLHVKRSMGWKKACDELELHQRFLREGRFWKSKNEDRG
53BP1 TTD, sequence (Q12888 1484-1603): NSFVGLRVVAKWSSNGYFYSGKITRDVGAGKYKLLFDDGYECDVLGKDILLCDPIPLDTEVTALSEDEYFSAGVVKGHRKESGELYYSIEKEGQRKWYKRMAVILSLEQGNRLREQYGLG
histone H3.3K36me3 H3.3 peptide (Homo sapiens), sequence (P84243 20-43): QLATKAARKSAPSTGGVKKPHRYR
PHF1 Tudor, sequence (O43189 26-89): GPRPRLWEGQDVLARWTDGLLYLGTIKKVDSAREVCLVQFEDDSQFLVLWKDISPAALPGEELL

For the substance 53BP1 TTD (from UniProt Q12888), the Kd in series [1] is 19.7 µM. In the case of BRM BD (from UniProt P51531), the Kd in series [2] is 900 µM.

Turning to “ZMYND11 PHD-BD-ZnF-PWWP (from UniProt Q15326)”, in series [3], the Kd was 56 µM. With BRM BD BD (from UniProt P51531), the Kd in series [4] is 900 µM.

PHF1 Tudor (from UniProt O43189): the Kd in series [5] was 36 µM.
